Experimental data published in patent US20190094207A1 (JAPANESE FOUNDATION FOR CANCER RESEARCH, published 2019).
One block for each binder: values may come before it.

Legend:
[1] = molecular target: T1, Wild type HP1α (His tag or GST tag attached) (UniProt P45973 1-191); experiment: alpha assay with acceptor and donor beads capturing His tag or GST tag
T1 construct: also called heterochromatin protein 1; not shown: His tag or GST tag
Method: If a candidate compound is added in the binding assay system, a compound influencing the binding of INCENP and HP1 can be screened. Further, a system for analyzing the binding of HP1 and INCENP based on an alpha assay, which is more sensitive and easier in operation, was constructed. The interaction between HP1α and INCENP was determined by using acceptor beads or donor beads that can capture His tag or GST tag and detecting fluorescent signal in accordance with a conventional method. As a result of that His tag or GST tag was attached to HP1α and a region at positions 160 to 210 in INCENP (SEQ ID NO: 10) and the aforementioned alpha assay using acceptor beads and donor beads was carried out, a binding can be sensitively detected. Accordingly, owing to HTS using the binding assay or alpha assay, compounds influencing the binding of HP1 and INCENP can be screened.

[2] = molecular target: INCENP (Inner Centromere Protein), endogenous, as part of the chromosomal passenger complex (CPC) (human, UniProt Q9NQS7 1-918); experiment: INCENP immunoprecipitated from mitotic HeLa cell extract; amount of coprecipitated protein (INCENP in the same precipitate: 1280 pmol)
Method: The cells in the mitotic phase were incubated in a solution, which was prepared by adding 1 U/μl OmniCleave Endonuclease (manufactured by Epicentre) in the above immunoprecipitation buffer, at 4° C. for 30 minutes. The solution was centrifuged at 4° C. and 15,000 rpm for 10 minutes and the supernatant was further centrifuged. The resultant supernatant was used for immunoprecipitation. Protein A-Sepharose (manufactured by Bio-Rad) having an antibody bound thereto, was allowed to react with cell extracts and subjected to immunoprecipitation. […]
Next, whether or not binding to INCENP differs among the subtypes of HP1 was analyzed (FIG. 1B). […] Mitotic HeLa cell extracts were subjected to immunoprecipitation with an INCENP antibody or control IgG and then analyzed by immunoblotting using antibodies against INCENP, Aurora B (clone 6, manufactured by BD Bioscience) and Survivin (71G4B7E, manufactured by Cell Signaling Technology) constituting CPC; an HP1α antibody (clone 15.19s2, manufactured by Millipore), an HP1β antibody (clone 1MOD-1A9, manufactured by Millipore) and an HP1 γ antibody (clone 2MOD-1G6, manufactured by Millipore).
Quantitative analysis was carried out using purified recombinant HP1-subtype proteins.

GST-Aurora B = molecular target: T2, GST-Aurora B (UniProt Q96GD4 1-344, limits assumed); experiment: GST pull down with recombinant full-length INCENP + GST-Aurora B, without HP1α, with HP1α WT or with I165E; immunoblot and bar chart of Hec1 binding
T2 construct: not shown: GST
Method: Then, enzyme kinetics analysis of Aurora B was carried out. […] Further, analysis of proteins binding to GST-Aurora B was carried out by the GST pull down assay. As a result, the amount of Hec1 binding to GST-Aurora B increased in the conditions where HP1 can bind to INCENP. […] Accordingly, binding of HP1α to INCENP is required for activating Aurora B.

[3] = molecular target: T1, Wild type HP1α (His tag or GST tag …); experiment: isothermal titration calorimetry, average of 5 experiments
Method: (§1) Wild type HP1α and a region at positions 121 to 270 in INCENP (SEQ ID NO: 8, INCENP WT) were used in the binding assay. The region at positions 121 to 270 in INCENP contains an important motif […], required for binding to HP1. A mutant (SEQ ID NO: 9, INCENP 3A) was obtained by substituting three amino acids in this region with alanine residues and used as a control. A dissociation constant thereof was determined by isothermal titration calorimetry. As an isothermal titration calorimetry apparatus, any device may be used. For example, using MicroCal iTC2000 system (manufactured by GE healthcare biosciences), measurement may be carried out, in accordance with a conventional method.
(§2) The above peptides, to which His tag or GST tag was attached, were subjected to isothermal titration calorimetry to determine a dissociation constant. Note that, the dissociation constant was computationally obtained based on average values of 5 experiments.

[4] = molecular target: T1, Wild type HP1α (His tag or GST tag …); experiment: isothermal titration calorimetry
Method: as §1, §2

T1 sequence (P45973 whole entry): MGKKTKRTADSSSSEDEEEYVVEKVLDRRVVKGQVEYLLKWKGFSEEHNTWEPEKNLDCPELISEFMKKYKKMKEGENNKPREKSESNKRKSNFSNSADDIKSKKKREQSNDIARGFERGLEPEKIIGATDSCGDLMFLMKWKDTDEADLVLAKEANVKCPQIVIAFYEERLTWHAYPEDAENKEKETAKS
Chain of INCENP (Inner Centromere Protein), endogenous, as part of the chromosomal passenger complex (CPC) (Q9NQS7 whole entry, one chain of several): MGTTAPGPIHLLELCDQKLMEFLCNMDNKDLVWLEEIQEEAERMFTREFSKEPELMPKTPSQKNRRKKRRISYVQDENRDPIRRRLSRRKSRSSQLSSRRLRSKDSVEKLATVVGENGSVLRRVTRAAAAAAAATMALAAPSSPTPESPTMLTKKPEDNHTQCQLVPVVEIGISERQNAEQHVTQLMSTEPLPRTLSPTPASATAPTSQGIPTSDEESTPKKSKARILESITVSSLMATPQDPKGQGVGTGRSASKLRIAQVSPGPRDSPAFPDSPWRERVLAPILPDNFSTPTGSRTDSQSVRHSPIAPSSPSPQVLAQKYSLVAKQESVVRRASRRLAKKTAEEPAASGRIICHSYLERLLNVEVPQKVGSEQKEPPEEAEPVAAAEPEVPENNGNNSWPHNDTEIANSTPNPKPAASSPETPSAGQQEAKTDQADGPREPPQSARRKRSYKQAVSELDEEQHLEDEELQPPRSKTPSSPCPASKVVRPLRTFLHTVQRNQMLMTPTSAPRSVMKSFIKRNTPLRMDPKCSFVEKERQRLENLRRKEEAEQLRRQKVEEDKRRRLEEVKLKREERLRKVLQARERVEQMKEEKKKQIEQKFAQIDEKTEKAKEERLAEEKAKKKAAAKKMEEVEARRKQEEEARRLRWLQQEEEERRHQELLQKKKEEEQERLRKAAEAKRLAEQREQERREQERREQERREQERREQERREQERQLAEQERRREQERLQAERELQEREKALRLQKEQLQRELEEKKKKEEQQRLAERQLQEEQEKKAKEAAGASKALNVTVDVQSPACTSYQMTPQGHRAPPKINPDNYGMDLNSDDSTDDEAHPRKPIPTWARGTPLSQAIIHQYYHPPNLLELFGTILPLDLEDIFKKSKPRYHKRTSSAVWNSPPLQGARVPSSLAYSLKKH

B1: Region at positions 160 to 210 in INCENP (peptide)
chain: TQCQLVPVVEIGISERQNAEQHVTQLMSTEPLPRTLSPTPASATAPTSQG
notes: Used in the alpha assay with HP1α; also called INCENP 160-210; not shown: His tag or GST tag
- binding result [1]: binds

B2: Aurora B (endogenous) (enzyme, human, UniProt Q96GD4 1-344, looked up)
chain: MAQKENSYPWPYGRQTAPSGLSTLPQRVLRKEPVTPSALVLMSRSNVQPTAAPGQKVMENSSGTPDILTRHFTIDDFEIGRPLGKGKFGNVYLAREKKSHFIVALKVLFKSQIEKEGVEHQLRREIEIQAHLHHPNILRLYNYFYDRRRIYLILEYAPRGELYKELQKSCTFDEQRTATIMEELADALMYCHGKKVIHRDIKPENLLLGLKGELKIADFGWSVHAPSLRRKTMCGTLDYLPPEMIEGRMHNEKVDLWCIGVLCYELLVGNPPFESASHNETYRRIVKVDLKFPASVPMGAQDLISKLLRHNPSERLPLAQVSAHPWVRANSRRVLPPSALQSVA
- Amount [2]: 1110 pmol

B4: INCENP WT (region at positions 121 to 270 in INCENP) (peptide)
chain: LRRVTRAAAAAAAATMALAAPSSPTPESPTMLTKKPEDNHTQCQLVPVVEIGISERQNAEQHVTQLMSTEPLPRTLSPTPASATAPTSQGIPTSDEESTPKKSKARILESITVSSLMATPQDPKGQGVGTGRSASKLRIAQVSPGPRDSP
notes: also called INCENP 121-270; not shown: His tag or GST tag
- Kd [3]: 102 nM

The next lines start with the values.

- binding result (GST-Aurora B): binds
B3: Hec1 (other, UniProt O14777 1-80, looked up)
chain: MKRSSVSSGGAGRLSMQELRSQDVNKQGLYTPQTKEKPTFGKLSINKPTSERKVSLFGKRTSGHGSRNSQLGIFSSSEKI
notes: also called Aurora B substrate

- binding result [4]: no binding
B5: INCENP 3A (region 121 to 270 of INCENP with three amino acids substituted with alanine) (peptide)
chain: LRRVTRAAAAAAAATMALAAPSSPTPESPTMLTKKPEDNHTQCQLVAVAEAGISERQNAEQHVTQLMSTEPLPRTLSPTPASATAPTSQGIPTSDEESTPKKSKARILESITVSSLMATPQDPKGQGVGTGRSASKLRIAQVSPGPRDSP
notes: also called INCENP 3A mutant; not shown: His tag or GST tag
